From patent US20150267232A1, “IN VIVO AND IN VITRO CARBENE INSERTION AND NITRENE TRANSFER REACTIONS CATALYZED BY HEME ENZYMES” (California Institute of Technology, priority 2012, published 2015) come the findings set out here.

Residue numbers refer to the chain shown, from its start. Names may count otherwise.

Data set [1] can be described thus: N—H insertion, aniline with ethyl 2-diazopropanoate, whole cells. The following applies: whole cells expressing enzyme at 2.5 μM. The class given is cell-based. The protocol: (§1) The reactions shown in FIG. 37B were carried out with 10 μM catalyst loading, 20 mM aniline, 10 mM Na2S2O4 and 10 mM ethyl 2-diazopropanoate as described above. For the final entry in FIG. 37B, whole cells expressing BM3-CIS-T438S at 2.5 μM were used. See, U.S. Provisional Application No. 61/711,640 for the procedure for catalysis with whole cells.

A short description of data set [2]: Intramolecular carbene C—H insertion, substrate 4.1a. It counts as biochemical. The following applies: for Yield %: 10 mM 4.1a, 10 uM P450, 10 mM Na2S2O4, product 4.2a. The method, then: Yield of product 4.22b was established after calibration with phenethyl alcohol as an internal standard. The reaction is not catalyzed by the WT-BM3 heme domain or hemin at 5% catalyst loading.
A representative procedure for P450-catalyzed C—H insertion is as follows: A vial containing WT-AxD (20 μL, 200 μM) was sealed with a teflon cap and the headspace of this vial was purged with argon for 5 min. Concurrently, a solution of sodium dithionite (11 mM in phosphate buffer pH=8) was degassed for a minimum of 5 min and 360 μL of this solution was transferred to the vial containing protein. The gas lines were disconnected from the vials. The substrate 4.1a or 4.1b was then added as a solution (20 μL, 200 mM). Final concentrations of all components were: 10 uM enzyme, 10 mM substrate, and 10 mM dithionite. […]
The mixture was extracted with 1 mL cyclohexane and analyzed by GC-MS or GC. GC-MS was performed on a Shimadzu TQ8030 GC-MS with ion count detector and J&W HP-5 column (30 m×0.32 mm, 0.25 μm film) using the following method: 90° C. (hold 2 min), 90-190° C. (20° C./min), and 190-230 (40° C./min)

A short description of data set [3]: N—H insertion, aniline with ethyl 2-diazopropanoate. It counts as biochemical. Particulars: 10 μM catalyst, 20 mM aniline, 10 mM Na2S2O4, 10 mM ethyl 2-diazopropanoate. The method, then: The reactions shown in FIG. 37A were carried out with protein (20 μM), ethyl diazo acetate (8.5 mM), aniline (20 mM) and Na2S2O4 (10 mM) in phosphate buffer (pH 8) and allowed to shake at room temperature for 12 h. Yields are reported in parenthesis and TTN are presented in italics. Yields were determined by GC calibrated for each product. An isolated yield of 65% for compound 4.3 was determined for the milligram scale reaction run as follows: 25 mM EDA, 25 mM aniline, 25 μM protein, and 25 mM Na2S2O4. The reaction producing compounds 4.5 and 4.10 were carried out with protein (20 μM), ethyl diazo acetate (10.0 mM), aniline (20 mM) and Na2S2O4 (10 mM).
While substituted diazo compounds can also be used for insertion, the yield from N—H insertion of ethyl 2-diazopropanoate into aniline is only 26% (product 4.5). To improve efficiency of this reaction, we examined the reaction of ethyl 2-diazopropanoate with a variety of axial mutants. In particular, the axial mutant WT-AxA provided the desired product in 83% yield, compared to 8% yield and 1.7% yield with axial mutant WT-AxS and WT-BM3 heme domain, respectively (FIG. 37B).
as §1

B1: BM3-CIS-T438S: BM3-CIS + T438S (protein, listed as Bacillus megaterium)
chain: TIKEMPQPKTFGELKNLPLLNTDKPVQALMKIADELGEIFKFEAPGRVTRYLSSQRLIKEACDESRFDKNLSQALKFARDFAGDGLVTSWTHEKNWKKAHNILLPSFSQQAMKGYHAMMVDIAVQLVQKWERLNADEHIEVSEDMTRLTLDTIGLCGFNYRFNSFYRDQPHPFIISMVRALDEVMNKLQRANPDDPAYDENKRQFQEDIKVMNDLVDKIIADRKARGEQSDDLLTQMLNGKDPETGEPLDDGNIRYQIITFLIAGHEATSGLLSFALYFLVKNPHVLQKVAEEAARVLVDPVPSYKQVKQLKYVGMVLNEALRLWPTAPAFSLYAKEDTVLGGEYPLEKGDEVMVLIPQLHRDKTVWGDDVEEFRPERFENPSAIPQHAFKPFGNGQRACIGQQFALHEATLVLGMMLKHFDFEDHTNYELDIKETLSLKPKGFVVKAKSKKIPLGGIPSPSTEQSAKKVRKKAENAHNTPLLVLYGSNMGTAEGTARDLADIAMSKGFAPQVATLDSHAGNLPREGAVLIVTASYNGHPPDNAKQFVDWLDQASADEVKGVRYSVFGCGDKNWATTYQKVPAFIDETLAAKGAENIADRGEADASDDFEGTYEEWREHMWSDVAAYFNLDIENSEDNKSTLSLQFVDSAADMPLAKMHGAFSTNVVASKELQQPGSARSTRHLEIELPKEASYQEGDHLGVIPRNYEGIVNRVTARFGLDASQQIRLEAEEEKLAHLPLAKTVSVEELLQYVELQDPVTRTQLRAMAAKTVCPPHKVELEALLEKQAYKEQVLAKRLTMLELLEKYPACEMKFSEFIALLPSIRPRYYSISSSPRVDEKQASITVSVVSGEAWSGYGEYKGIASNYLAELQEGDTITCFISTPQSEFTLPKDPETPLIMVGPGTGVAPFRGFVQARKQLKEQGQSLGEAHLYFGCRSPHEDYLYQEELENAQSEGIITLHTAFSRMPNQPKTYVQHVMEQDGKKLIELLDQGAHFYICGDGSQMAPAVEATLMKSYADVHQVSEADARLWLQQLEEKGRYAKDVWAG
modifications: cytochrome P450NADPH-P-450 reductase precursor, cytochrome P450 (BM3), CYP102A1
For the molecule B1, in data set [1], the enantioselectivity turned out to be 7% and the “yield of 4.5” value was found to be 17%.

B2: WT-BM3 heme: WT heme domain (amino acids 1-463 of SEQ ID NO: 1) (protein, listed as Bacillus megaterium)
chain: TIKEMPQPKTFGELKNLPLLNTDKPVQALMKIADELGEIFKFEAPGRVTRYLSSQRLIKEACDESRFDKNLSQALKFVRDFAGDGLFTSWTHEKNWKKAHNILLPSFSQQAMKGYHAMMVDIAVQLVQKWERLNADEHIEVPEDMTRLTLDTIGLCGFNYRFNSFYRDQPHPFITSMVRALDEAMNKLQRANPDDPAYDENKRQFQEDIKVMNDLVDKIIADRKASGEQSDDLLTHMLNGKDPETGEPLDDENIRYQIITFLIAGHETTSGLLSFALYFLVKNPHVLQKAAEEAARVLVDPVPSYKQVKQLKYVGMVLNEALRLWPTAPAFSLYAKEDTVLGGEYPLEKGDELMVLIPQLHRDKTIWGDDVEEFRPERFENPSAIPQHAFKPFGNGQRACIGQQFALHEATLVLGMMLKHFDFEDHTNYELDIKETLTLKPEGFVVKAKSKKIPLGGIPSPST
modifications: cytochrome P450NADPH-P-450 reductase precursor, cytochrome P450 (BM3), CYP102A1
On to B2, for which the Yield % in data set [2] stood at 0%. Also, the “lactone formation via C—H bond insertion” value in data set [2] (substrates 4.1a and 4.1b, 10 μM variant or hemin at 5% catalyst loading, 16 h) is on record as “not catalyzed”. Moreover, the “yield of product 4.5” value in data set [3] is reported as 1.7%.

B3: WT-AxA: WT heme domain + C400A (protein)
chain: B2 chain with C400A, T438S, E442K
modifications: synthetic cytochrome P450-BM3 variant WT-AxA (heme)
notes: WT heme domain + C400A
In the case of B3, in data set [2], the Yield % entry is “trace”. Moreover, in data set [3], the “yield of product 4.5” value turned out to be 83%.

B4: WT-AxY: WT heme domain + C400Y (protein, listed as Bacillus megaterium)
chain: B2 chain with C400Y
modifications: cytochrome P450NADPH-P-450 reductase precursor, cytochrome P450 (BM3), CYP102A1
notes: WT heme domain + C400Y
With B4, in data set [2], the Yield % entry is “trace”.

B5: WT-AxK: WT heme domain + C400K (protein)
chain: B2 chain with C400K, T438S, E442K
modifications: synthetic cytochrome P450-BM3 variant WT-AxK (heme)
notes: WT heme domain + C400K
In data set [2], B5 registered a Yield % of 0%.

B6: WT-AxM: WT heme domain + C400M (protein)
chain: B2 chain with C400M, T438S, E442K
modifications: synthetic cytochrome P450-BM3 variant WT-AxM (heme)
notes: WT heme domain + C400M
Turning to B6, the Yield % in data set [2] was 0%.

B7: WT-AxN: WT heme domain + C400N (protein)
chain: B2 chain with C400N, T438S, E442K
modifications: synthetic cytochrome P450-BM3 variant WT-AxN (heme)
notes: WT heme domain + C400N
In the case of B7, the Yield % in data set [2] was 0%.

B8: WT-AxS: WT heme domain + C400S (protein, listed as Bacillus megaterium)
chain: B2 chain with C400S
modifications: cytochrome P450NADPH-P-450 reductase precursor, cytochrome P450 (BM3), CYP102A1
notes: WT heme domain + C400S
Take B8: the “yield of product 4.5” value in data set [3] amounted to 8%.
